# Measurements as given in article PMC9242541, “Importance of Rare DPYD Genetic Polymorphisms for 5-Fluorouracil Therapy in the Japanese Population” (Frontiers in Pharmacology, 2022).
# Positions count from the first letter of the chain named.
# B1: wild-type dihydropyrimidine dehydrogenase (DPD) (enzyme, human, UniProt Q12882 4-1025, looked up)
# chain: VLSKDSADIESILALNPRTQTHATLCSTSAKKLDKKHWKRNPDKNCFNCEKLENNFDDIKHTTLGERGALREAMRCLKCADAPCQKSCPTNLDIKSFITSIANKNYYGAAKMIFSDNPLGLTCGMVCPTSDLCVGGCNLYATEEGPINIGGLQQFATEVFKAMSIPQIRNPSLPPPEKMSEAYSAKIALFGAGPASISCASFLARLGYSDITIFEKQEYVGGLSTSEIPQFRLPYDVVNFEIELMKDLGVKIICGKSLSVNEMTLSTLKEKGYKAAFIGIGLPEPNKDAIFQGLTQDQGFYTSKDFLPLVAKGSKAGMCACHSPLPSIRGVVIVLGAGDTAFDCATSALRCGARRVFIVFRKGFVNIRAVPEEMELAKEEKCEFLPFLSPRKVIVKGGRIVAMQFVRTEQDETGKWNEDEDQMVHLKADVVISAFGSVLSDPKVKEALSPIKFNRWGLPEVDPETMQTSEAWVFAGGDVVGLANTTVESVNDGKQASWYIHKYVQSQYGASVSAKPELPLFYTPIDLVDISVEMAGLKFINPFGLASATPATSTSMIRRAFEAGWGFALTKTFSLDKDIVTNVSPRIIRGTTSGPMYGPGQSSFLNIELISEKTAAYWCQSVTELKADFPDNIVIASIMCSYNKNDWTELAKKSEDSGADALELNLSCPHGMGERGMGLACGQDPELVRNICRWVRQAVQIPFFAKLTPNVTDIVSIARAAKEGGANGVTATNTVSGLMGLKSDGTPWPAVGIAKRTTYGGVSGTAIRPIALRAVTSIARALPGFPILATGGIDSAESGLQFLHSGASVLQVCSAIQNQDFTVIEDYCTGLKALLYLKSIEELQDWDGQSPATVSHQKGKPVPRIAELMDKKLPSFGPYLEQRKKIIAENKIRLKEQNVAFSPLKRNCFIPKRPIPTIKDVIGKALQYLGTFGELSNVEQVVAMIDEEMCINCGKCYMTCNDSGYQAIQFDPETHLPTITDTCTGCTLCLSVCPIVDCIKMVSRTTPYEPKRGVPLSVNPVC
# notes: dihydropyrimidine dehydrogenase (DPD), human, wild-type DPYD cDNA; the open-reading frame encodes 1,025 amino acid residues; no tag is stated; also called wild-type DPD; source: 293FT cells, transfected (pcDNA3.4), soluble fraction
# B2: DPD variant T768K (enzyme, human, UniProt Q12882 4-1025, looked up)
# chain: B1 chain with T765K
# notes: dihydropyrimidine dehydrogenase (DPD), human, DPYD cDNA with a variant found in Japanese individuals; made by site-directed mutagenesis of the wild-type construct; also called 2303C > A; source: 293FT cells, transfected (pcDNA3.4), soluble fraction
# B3: DPD variant V826M (enzyme, human, UniProt Q12882 4-1025, looked up)
# chain: B1 chain with V823M
# notes: dihydropyrimidine dehydrogenase (DPD), human, DPYD cDNA with a variant found in Japanese individuals; made by site-directed mutagenesis of the wild-type construct; also called 2476G > A; source: 293FT cells, transfected (pcDNA3.4), soluble fraction
# B4: DPD variant A191V (enzyme, human, UniProt Q12882 4-1025, looked up)
# chain: B1 chain with A188V
# notes: dihydropyrimidine dehydrogenase (DPD), human, DPYD cDNA with a variant found in Japanese individuals; made by site-directed mutagenesis of the wild-type construct; also called 572C > T; source: 293FT cells, transfected (pcDNA3.4), soluble fraction
# B5: DPD variant T298M (enzyme, human, UniProt Q12882 4-1025, looked up)
# chain: B1 chain with T295M
# notes: dihydropyrimidine dehydrogenase (DPD), human, DPYD cDNA with a variant found in Japanese individuals; made by site-directed mutagenesis of the wild-type construct; also called 893C > T; source: 293FT cells, transfected (pcDNA3.4), soluble fraction
# B6: DPD variant M77V (enzyme, human, UniProt Q12882 4-1025, looked up)
# chain: B1 chain with M74V
# notes: dihydropyrimidine dehydrogenase (DPD), human, DPYD cDNA with a variant found in Japanese individuals; made by site-directed mutagenesis of the wild-type construct; also called 229A > G; source: 293FT cells, transfected (pcDNA3.4), soluble fraction
# B7: DPD risk variant D949V (enzyme, human, UniProt Q12882 4-1025, looked up)
# chain: B1 chain with D946V
# notes: dihydropyrimidine dehydrogenase (DPD), human, DPYD cDNA with a risk variant reported in Caucasians; made by site-directed mutagenesis of the wild-type construct; also called c.2846A>T; 2846A > T; source: 293FT cells, transfected (pcDNA3.4), soluble fraction
# B8: DPD variant S175L (enzyme, human, UniProt Q12882 4-1025, looked up)
# chain: B1 chain with S172L
# notes: dihydropyrimidine dehydrogenase (DPD), human, DPYD cDNA with a variant found in Japanese individuals; made by site-directed mutagenesis of the wild-type construct; also called 524C > T; source: 293FT cells, transfected (pcDNA3.4), soluble fraction
# B9: DPD variant S939N (enzyme, human, UniProt Q12882 4-1025, looked up)
# chain: B1 chain with S936N
# notes: dihydropyrimidine dehydrogenase (DPD), human, DPYD cDNA with a variant found in Japanese individuals; made by site-directed mutagenesis of the wild-type construct; also called 2816G > A; source: 293FT cells, transfected (pcDNA3.4), soluble fraction
# B10: DPD variant Y109N (enzyme, human, UniProt Q12882 4-1025, looked up)
# chain: B1 chain with Y106N
# notes: dihydropyrimidine dehydrogenase (DPD), human, DPYD cDNA with a variant found in Japanese individuals; made by site-directed mutagenesis of the wild-type construct; also called 325T > A; source: 293FT cells, transfected (pcDNA3.4), soluble fraction
# B11: DPD variant H807R (enzyme, human, UniProt Q12882 4-1025, looked up)
# chain: B1 chain with H804R
# notes: dihydropyrimidine dehydrogenase (DPD), human, DPYD cDNA with a variant found in Japanese individuals; made by site-directed mutagenesis of the wild-type construct; source: 293FT cells, transfected (pcDNA3.4), soluble fraction
# B12: DPD variant R592W (enzyme, human, UniProt Q12882 4-1025, looked up)
# chain: B1 chain with R589W
# notes: dihydropyrimidine dehydrogenase (DPD), human, DPYD cDNA with a variant found in Japanese individuals; made by site-directed mutagenesis of the wild-type construct; also called 1774C > T; source: 293FT cells, transfected (pcDNA3.4), soluble fraction
# B13: DPD variant N151D (enzyme, human, UniProt Q12882 4-1025, looked up)
# chain: B1 chain with N148D
# notes: dihydropyrimidine dehydrogenase (DPD), human, DPYD cDNA with a variant found in Japanese individuals; made by site-directed mutagenesis of the wild-type construct; also called 451A > G; source: 293FT cells, transfected (pcDNA3.4), soluble fraction
# B14: DPD variant G748D (enzyme, human, UniProt Q12882 4-1025, looked up)
# chain: B1 chain with G745D
# notes: dihydropyrimidine dehydrogenase (DPD), human, DPYD cDNA with a variant found in Japanese individuals; made by site-directed mutagenesis of the wild-type construct; also called 2243G > A; source: 293FT cells, transfected (pcDNA3.4), soluble fraction
# B15: DPD variant V313L (enzyme, human, UniProt Q12882 4-1025, looked up)
# chain: B1 chain with V310L
# notes: dihydropyrimidine dehydrogenase (DPD), human, DPYD cDNA with a variant found in Japanese individuals; made by site-directed mutagenesis of the wild-type construct; also called 937G > T; source: 293FT cells, transfected (pcDNA3.4), soluble fraction
# B16: DPD variant K384E (enzyme, human, UniProt Q12882 4-1025, looked up)
# chain: B1 chain with K381E
# notes: dihydropyrimidine dehydrogenase (DPD), human, DPYD cDNA with a variant found in Japanese individuals; made by site-directed mutagenesis of the wild-type construct; also called 1150A > G; source: 293FT cells, transfected (pcDNA3.4), soluble fraction
# B17: DPD variant V515I (enzyme, human, UniProt Q12882 4-1025, looked up)
# chain: B1 chain with V512I
# notes: dihydropyrimidine dehydrogenase (DPD), human, DPYD cDNA with a variant found in Japanese individuals; made by site-directed mutagenesis of the wild-type construct; also called 1543G > A; source: 293FT cells, transfected (pcDNA3.4), soluble fraction
# B18: DPD variant I245F (enzyme, human, UniProt Q12882 4-1025, looked up)
# chain: B1 chain with I242F
# notes: dihydropyrimidine dehydrogenase (DPD), human, DPYD cDNA with a variant found in Japanese individuals; made by site-directed mutagenesis of the wild-type construct; also called 733A > T; source: 293FT cells, transfected (pcDNA3.4), soluble fraction
# B19: DPD variant G366A (enzyme, human, UniProt Q12882 4-1025, looked up)
# chain: B1 chain with G363A
# notes: dihydropyrimidine dehydrogenase (DPD), human, DPYD cDNA with a variant found in Japanese individuals; made by site-directed mutagenesis of the wild-type construct; also called 1097G > C; source: 293FT cells, transfected (pcDNA3.4), soluble fraction
# B20: DPD variant I843T (enzyme, human, UniProt Q12882 4-1025, looked up)
# chain: B1 chain with I840T
# notes: dihydropyrimidine dehydrogenase (DPD), human, DPYD cDNA with a variant found in Japanese individuals; made by site-directed mutagenesis of the wild-type construct; also called 2528T > C; source: 293FT cells, transfected (pcDNA3.4), soluble fraction
# B21: DPD variant V738L (enzyme, human, UniProt Q12882 4-1025, looked up)
# chain: B1 chain with V735L
# notes: dihydropyrimidine dehydrogenase (DPD), human, DPYD cDNA with a variant found in Japanese individuals; made by site-directed mutagenesis of the wild-type construct; also called 2212G > C; source: 293FT cells, transfected (pcDNA3.4), soluble fraction
# Target: the molecule itself
# Test: native gel or EMSA; blue native PAGE (Tris-glycine buffer, 5%-20% polyacrylamide gels), 9 μg of the soluble fraction of transfected 293FT cells per lane, immunoblot with polyclonal anti-human DPD antibody; monomer to dimer
row,Protein,stoichiometry N
1,B1,2
2,B2,2
3,B3,2
4,B4,2
5,B5,2
6,B6,2
7,B7,2
8,B8,2
9,B9,2
10,B10,2
11,B11,2
12,B12,2
13,B13,2
14,B14,2
15,B15,2
16,B16,2
17,B17,2
18,B18,2
19,B19,2
20,B20,2
21,B21,2
